This note sets out measurements from US20260077065A1, “Compositions and Methods for Assessing Kinase Activity” (The Board of Trustees of the Leland Stanford Junior …, priority 2022, published 2026).

Experiment [1] deals with ERK. The experiment is described as follows: bKiMBI bioluminescence in cancer cell lines U87, U87-EGFRvIII, SK-OV-3. Particulars: SK-OV-3 cells. It is filed as cell-based, human. The source says:
Endogenous ERK activity in these cell lines appeared to be only partially activated, as co-expressing caMEK further suppressed basal KiMBI signal. […] This provides additional evidence that KiMBI responds positively to ERK inhibition, and argues against inhibitors directly binding KiMBIs to enhance NanoLuc assembly or catalysis. […] Positive KiMBI responses must actually overcome this tendency of kinase inhibitors to suppress bioluminescence.
In vitro cell-based bioluminescent assay. Cells were seeded into 96-well Lumitrac plate (Greiner Bio-One) at a density of 1.5-2×10^4 cells per well. After 24 h, cells were transiently transfected with KiMBI-expressing plasmids (5-10 ng per well) with or without caMEK-expressing plasmids (50 ng per well, empty pcDNA3.1 as negative control to keep total transfected DNA amount consistent) using lipofectamine 3000 (Invitrogen) following manufacturer's instructions. […] Then, for assaying luminescence, Nano-Glo live cell assay system (Promega) was used following manufacturer's instructions. Time-lapse live luminescence was recorded on Safire-2 microplate reader (Tecan) with 100 ms integration and one read per min for 20 min. Luminescence spectrum was measured on a Varioskan LUX multimode microplate reader (Thermo Scientific) using the spectral scanning protocol with 1 s integration for each wavelength at 400-680 nm (1 nm per data point).

The test system of experiment [2] is ERK. The experiment is described as follows: ERK KiMBI cell-based bioluminescent assay, HEK293A cells co-transfected with caMEK. Conditions: FIG. 5d. The source says:
To develop a luciferase reporter protein whose activity can be activated by ERK inhibition, it was hypothesized that NanoLuc luciferase catalytic activity could be modulated through large ERK-induced conformational changes. Created and tested were fusion proteins of various topologies (FIG. 2a) comprising the NanoLuc NanoBiT fragments, an ERK substrate peptide from Cdc25C^7, and a proline-directed WW phospho-binding domain (WW)^8 from Pin1. In particular, an arrangement was postulated in which binding of phosphorylated substrate (pSub) to WW would force the SmBiT fragment to adopt an unfavorable conformation for LgBiT complementation, would show low luminescence with active ERK and high luminescence with inhibited ERK (FIG. 2b). […]
In vitro cell-based bioluminescent assay. […] Then, for assaying luminescence, Nano-Glo live cell assay system (Promega) was used following manufacturer's instructions. Time-lapse live luminescence was recorded on Safire-2 microplate reader (Tecan) with 100 ms integration and one read per min for 20 min. Luminescence spectrum was measured on a Varioskan LUX multimode microplate reader (Thermo Scientific) using the spectral scanning protocol with 1 s integration for each wavelength at 400-680 nm (1 nm per data point).

B1: bKiMBI: ERK blue KiMBI, WW F25A; SEQ ID NO:2 (protein)
chain: MVSKGEELIKENMRSKLYLEGSVNGHQFKCTHEGEGKPYEGKQTNRIKVVEGGPLPFAFDILATHFMYGSKVFIKYPADLPDYFKQSFPEGFTWERVMVFEDGGVLTATQDTSLQDGELIYNVKVRGVNFPANGPVMQKKTLGWEPSTETMYPADGGLEGRCDKALKLVGGGHLHVNFKTTYKSKKPVKMPGVHYVDRRLERIKEADNETYVEQYEHAVARYSNLGGGFTLEDFVGDWEQTAAYNLDQVLEQGGVSSLLQNLAVSVTPIQRIVRSGENALKIDIHVIIPYEGLSADQMAQIEEVFKVVYPVDDHHFKVILPYGTLVIDGVTPNMLNYFGRPYEGIAVFDGKKITVTGTLWNGNKIIDERLITPDGSMLFRVTINSIMADEEKLPPGWEKRMSRSSGRVYYANHITNASQWERPSGNSSSGGKNGQGEPARVTGYRLFEPDSPRTPVDKAKLSFQFP
With B1, in the experiment on ERK [1], the “bKiMBI response (brightness increase) after ERK inhibition” value was approximately 2.5 fold.

B2: tKiMBI: ERK KiMBI with N-terminal tdTomato; SEQ ID NO:4 (protein)
chain: MVSKGEEVIKEFMRFKVRMEGSMNGHEFEIEGEGEGRPYEGTQTAKLKVTKGGPLPFAWDILSPQFMYGSKAYVKHPADIPDYKKLSFPEGFKWERVMNFEDGGLVTVTQDSSLQDGTLIYKVKMRGTNFPPDGPVMQKKTMGWEASTERLYPRDGVLKGEIHQALKLKDGGHYLVEFKTIYMAKKPVQLPGYYYVDTKLDITSHNEDYTIVEQYERSEGRHHLFLGHGTGSTGSGSSGTASSEDNNMAVIKEFMRFKVRMEGSMNGHEFEIEGEGEGRPYEGTQTAKLKVTKGGPLPFAWDILSPQFMYGSKAYVKHPADIPDYKKLSFPEGFKWERVMNFEDGGLVTVTQDSSLQDGTLIYKVKMRGTNFPPDGPVMQKKTMGWEASTERLYPRDGVLKGEIHQALKLKDGGHYLVEFKTIYMAKKPVQLPGYYYVDTKLDITSHNEDYTIVEQYERSEGRHHLFRLEDFVGDWEQTAAYNLDQVLEQGGVSSLLQNLAVSVTPIQRIVRSGENALKIDIHVIIPYEGLSADQMAQIEEVFKVVYPVDDHHFKVILPYGTLVIDGVTPNMLNYFGRPYEGIAVFDGKKITVTGTLWNGNKIIDERLITPDGSMLFRVTINSIMADEEKLPPGWEKRMSRSSGRVYYFNHITNASQWERPSGNSSSGGKNGQGEPARVTGYRLFEPDSPRTPVDKAKLSFQFP
Regarding B2, the “time to full induction of reporter by kinase inhibitor” value in the experiment with ERK [2] was approximately 1 h.
